B1: PD1-0050 (antibody, V domains shown)
VH: DVQLQESGPGLVKPSQSLSLTCTVTGYSITSDYAWNWIRQFPGNKLEWMGYITYTGRTSYNPSLKSRISITRDTSKNQFFLQLNSVTTEDTATYYCAREMDYYGSTLDYWGQGTTLTVSS
VL: KIVLTQSPASLAVSLRQRATISCRASESVDRYGNSFIHWYQQKPGQPPKVLIYRASNLESGFPARFSGSGSRTDFTLTIDPVEADDAATYYCQQNNEDPYTFGSGTKLEIK
B2: Chimeric TIM3-0028 (antibody, human IgG1, V domains shown)
VH: EVQLQQSVAELVRPGASVKLSCTASGFNIKTTYMHWVKQRPEQGLEWIGRIDPADDNTKYAPKFQGKATITADTSSNTAYLQLSSLTSEDAAIYYCVRDFGYVAWFAYWGQGTLVTFSA
VL: NIVMTPTPKFLPVSSGDRVTMTCRASQSVDNYVAWYQQKPGQSPKLLIYYASNRYIGVPDRFTGSGSGTDFTFTISSVQVEDLAVYFCQQHYSSPYTFGSGTKLEIK
notes: also called aTIM3-chi28
B3: PD1-0069 (antibody, V domains shown)
VH: QVQLQQSGPELVRPGVSVKISCKGSGYTFTDYAMHWVKQSHARTLEWIGVISTYSGDTNYNQKFKDKATMTVDKSSSTAYLELARMTSEDSAIYYCARLGITTGFAYWGQGTLVTVSA
VL: DIVLTQSPASLAVSLGQRATISCRASKGVSTSSYSFMHWYQQKPRQPPKLLIKYASYLESGVPARFSGSGSGTDFTLNIHPVEEEDAATYYCHHSREFPWTFGGGTKLEIK
B4: Tim3_0016 (antibody, V domains shown)
VH: QVTLKESGPGILQPSQTLRLTCSFSGFSLSTSGMSVGWIRQPSGKGLEWLAHIWLNDDVFFNPALKSRLTISKDTSNNQVFLQIASVVTADTATYYCVRANGYLYALDYWGQGTSVTVSS
VL: QIVLTQSPAIMSASPGQKVTITCSASSSVNYTQWYQQKLGSSPKLWIYDAFKLAPGVPARFSGSGTGTSYSLTISSMEAEDAASYFCHQWSSYPWTFGGGTKLEIK
B5: Tim3_0018MutNQ (antibody, V domains shown)
VH: QVTLKESGPGILQPSQTLSLTCSFSGFSLSTSGMSVGWIRQPSGKGLEWLAHIWLNDDVFFNPALKRRLTISKDTSNNQVFLQIASVVTADTATYYCVRANGYLYALDYWGQGISVTVSS
VL: QIVLTQSPAIMSASPGQKVTITCSASSSVQYTQWYQQKLGSSPKLWIYDAFKLAPGVPARFSGSGTGTSYSLTISSMEAEDAASYFCHQWSSYPWTFGGGTKLEIK
B6: Tim3_0018MutNS (antibody, V domains shown)
VH: QVTLKESGPGILQPSQTLSLTCSFSGFSLSTSGMSVGWIRQPSGKGLEWLAHIWLNDDVFFNPALKRRLTISKDTSNNQVFLQIASVVTADTATYYCVRANGYLYALDYWGQGISVTVSS
VL: QIVLTQSPAIMSASPGQKVTITCSASSSVSYTQWYQQKLGSSPKLWIYDAFKLAPGVPARFSGSGTGTSYSLTISSMEAEDAASYFCHQWSSYPWTFGGGTKLEIK
B7: Tim3_0016MutNQ (antibody, V domains shown)
VH: QVTLKESGPGILQPSQTLRLTCSFSGFSLSTSGMSVGWIRQPSGKGLEWLAHIWLNDDVFFNPALKSRLTISKDTSNNQVFLQIASVVTADTATYYCVRANGYLYALDYWGQGTSVTVSS
VL: QIVLTQSPAIMSASPGQKVTITCSASSSVQYTQWYQQKLGSSPKLWIYDAFKLAPGVPARFSGSGTGTSYSLTISSMEAEDAASYFCHQWSSYPWTFGGGTKLEIK
B8: Tim3_0016MutNS (antibody, V domains shown)
VH: QVTLKESGPGILQPSQTLRLTCSFSGFSLSTSGMSVGWIRQPSGKGLEWLAHIWLNDDVFFNPALKSRLTISKDTSNNQVFLQIASVVTADTATYYCVRANGYLYALDYWGQGTSVTVSS
VL: QIVLTQSPAIMSASPGQKVTITCSASSSVSYTQWYQQKLGSSPKLWIYDAFKLAPGVPARFSGSGTGTSYSLTISSMEAEDAASYFCHQWSSYPWTFGGGTKLEIK
B9: PD1-0098 (antibody, V domains shown)
VH: DVQLQESGPGLVKPSQSLSLTCTVTGYSITSDYAWNWIRQFPGDKLEWLGYITYSGFTNYNPSLKSRISISRDTSKNQFFLQLNSVATEDTATYYCARWHGSAPWYFDYWGRGTTLTVSS
VL: DVLMTQTPLSLPVSLGDQASISCRSSQNIVHSDGNTYLEWYLQKPGQSPNLLIYKVSRRFSGVPDRFSGSGSGTDFTLKISRVEAEDLGVYYCFQGSHFPLTFGAGTKLELK
B10: Tim3_0038 (antibody, V domains shown)
VH: EVQLQQSGAEPLKPGASVKLTCTTSGFNIKDYYIHWVKQRSDQGLEWIGRIDPEDGELIYAPKFQDKATITVDTSSNIAYLQLNSLTSEDTAVYYCSRDHGYVGWFAYWGQGTLVTVSA
VL: NVVMTQSPKSMIMSVGQRVTLNCKASENVDTYVSWYQQKPEQSPKLLIYGASNRYTGVPDRFTGSRSATDFTLTISSVQAEDLAVYYCGQSYSYPWTFGGGTKLEFR
B11: PD1-0102 (antibody, V domains shown)
VH: DVQLQESGPDLVKPSQSLSLTCTVTGYSITSGYSWHWIRQFPGNKLEWMGFIHSSGDTNYNPSLKSRISFTRDTSKNQFFLQLSSLTDEDTATYYCATYRNWYFDVWGAGTTVTVSS
VL: DIVMTQSPSSLTVTAGEKVTMRCKSSQSLLNSGTQKNYLTWYQQKPGQPPKLLIYWASTRESGVPNRFTGSGSGTDFTLTISSVQAEDLSVYYCQSDYTFPLTFGGGTKLELK
B12: PD1-0073 (antibody, V domains shown)
VH: EVKLVESGGGLVKPGGSLKLSCAASGFTFSNYGMSWIRQTPEKGLEWVATISGGGRDTYYPDSVKGRFTISRDNVKNNLYLQMSSLRSEDTAFYYCASYYYGIDYWGQGTSVTVSS
VL: DIVMTQPHKFMSTSVGDRVRITCKASQDVTTAVAWYQQKPGQSPKLLIYWASTRHTGVPDRFTGSGSGTEFTLTISSVQAEDLALYYCQQHYSIPWTFGGGTKLEIK
B13: PD1-0078 (antibody, V domains shown)
VH: QVQLQQPGAELVKPGASVKMSCKASGYTFTSTWMHWVKQRPGQGLEWIGAIDPSDSYTTYNQKFKGKATLTVDTSSTTAYMQLSSLTSEDSAVYYCTRSPFDYWGQGTTLTVSS
VL: DIVMTQSHKFMSTSVGDRVSITCKASQDVSTAVAWYQQKPGQSPKLLIYSASYRYTGVPDRFTGSGSGTDFTFAISSVQAEDLAVYYCQQHYSHPFTFGSGTKLEIK
B14: PD1-0103 (antibody, V domains shown)
VH: EVILVESGGGLVKPGGSLKLSCAASGFSFSSYTMSWVRQTPEKRLDWVATISGGGRDIYYPDSVKGRFTISRDNAKNTLYLEMSSLMSEDTALYYCVLLTGRVYFALDSWGQGTSVTVSS
VL: KIVLTQSPASLPVSLGQRATISCRASESVDTSDNSFIHWYQQRPGQSPKLLIYRSSTLESGVPARFSGSGSRTDFTLTIDPVEADDVATYYCQQNYDVPWTFGGGTKLEIK
notes: Mouse monoclonal antibody

Tests used:
[1] = biological target: T1, biotinylated cynoPD1-ECD-Biotin (cynomolgus); experiment: ELISA on coated cynoPD1-ECD-Biotin
T1 construct: extracellular domain; also called cyPD1
Experimental: After washing (3×90 μl/well with PBST-buffer) 25 μl anti PD1 samples or reference antibodies (human anti PD1; Roche) were added and incubated 1 h at RT on shaker. After washing (3×90 μl/well with PBST-buffer) 25 μl/well goat-anti-human H+L-POD (JIR, JIR109-036-088) was added in 1:1000 dilution and incubated at RT for 1 h on shaker.

[2] = biological target: T2, biotinylated PD1-ECD-AviHis (human, UniProt Q15116 25-170, biotinylated, site not stated); experiment: ELISA on coated biotinylated PD1-ECD-AviHis
T2 construct: also called huPD1; hu PD1

[3] = biological target: T2, biotinylated PD1-ECD-AviHis; experiment: ELISA, inhibition of PD-L1 Fc binding to coated PD1-ECD-AviHis
[4] = biological target: T2, biotinylated PD1-ECD-AviHis; experiment: ELISA, inhibition of PD-L2 Fc binding to coated PD1-ECD-AviHis
Experimental: After washing (3×90 μl/well with PBST-buffer) 25 μl anti PD1 samples or reference antibodies (mouse anti huPD1; Roche) were added and incubated 1 h at RT on shaker.

[5] = biological target: T2, biotinylated PD1-ECD-AviHis; experiment: ELISA on coated biotinylated PD1-ECD-AviHis; remark: listed apart in the source
Experimental: After washing (3×90 μl/well with PBST-buffer) 25 μl anti PD1 antibody samples were added in increasing concentrations and incubated 1 h at RT. After washing (3×90 μl/well with PBST-buffer) 25 μl/well goat-anti-human H+L-POD (JIR, JIR109-036-098) was added in 1:5000 dilution and incubated at RT for 1 h on a shaker.

[6] = biological target: T3, full-length human Tim3 on cells (CHO-K1 stably transfected with plasmid 15312_hTIM3-fl_pUC_Neo) (human, UniProt Q8TDQ0 22-301); experiment: cell-based or functional assay
[7] = biological target: T4, Tim3-ECD-His-Biotin (human, UniProt Q8TDQ0 22-202, biotinylated with BirA Ligase, site not stated); experiment: ELISA on human Tim3
T4 construct: also called human Tim3 (ELISA); Biochem Human

[8] = biological target: T3, full-length human Tim3 on cells (CHO-K1 …); experiment: cellular ELISA on CHO-TIM3
Experimental: (§1) Then the reaction was stopped by addition of 25 μl/well 1N HCL-solution.

[9] = biological target: T4, Tim3-ECD-His-Biotin; experiment: ELISA on human Tim3 (values in relation to the samples max value)
Experimental: After washing (3×90 μl/well with PBST-buffer) 25 μl aTim3 samples or diluted (1:2 steps) reference antibody aTim3 F38-2E2 (Biolegend) was added and incubated 1 h at RT. After washing (3×90 μl/well with PBST-buffer) 25 μl/well sheep-anti-mouse-POD (GE NA9310V) was added in 1:9000 dilution and incubated at RT for 1 h while shaking at 400 rpm rotation. After washing (4×90 μl/well with PBST-buffer) 25 μl/well TMB substrate (Calbiochem, #CL07) was added and incubated until OD 1.5-2.5. Then the reaction was stopped by addition of 25 μl/well 1N HCL-solution.

[10] = biological target: T3, full-length human Tim3 on cells (CHO-K1 …); experiment: cellular ELISA on CHO-TIM3 (values in relation to the samples max value)
Experimental: as §1

Row | Binder | EC50 [1] | EC50 [2] | IC50 [3] | IC50 [4] | other results
1 | B1 | 0.0098 µg/mL | 0.0179 µg/mL | 0.128 µg/mL | 0.034 µg/mL | –
2 | B2 | – | – | – | – | binding result [5]: no binding
3 | B3 | 0.0227 µg/mL | 0.0457 µg/mL | 0.225 µg/mL | 0.089 µg/mL | –
4 | B4 | – | – | – | – | IFN-gamma release in MLR at 1 µg/ml antibody, % of rec hu IL-2 (20 EU/ml) = 100% [6]: 7%; IFN-gamma release in MLR at 10 µg/ml antibody, % of rec hu IL-2 (20 EU/ml) = 100% [6]: 22%
5 | B5 | – | – | – | – | Inflexion point [7]: 10.8 ng/mL; Inflexion point [8]: 12.8 ng/mL; EC50 [9]: 0.012 µg/mL; EC50 [10]: 0.0134 µg/mL
6 | B6 | – | – | – | – | Inflexion point [7]: 6.5 ng/mL; Inflexion point [8]: 11.1 ng/mL; EC50 [9]: 0.0103 µg/mL; EC50 [10]: 0.0112 µg/mL
7 | B7 | – | – | – | – | Inflexion point [7]: 5.7 ng/mL; Inflexion point [8]: 5.4 ng/mL; EC50 [9]: 0.0076 µg/mL; EC50 [10]: 0.0063 µg/mL
8 | B8 | – | – | – | – | Inflexion point [7]: 5.5 ng/mL; Inflexion point [8]: 8.5 ng/mL; EC50 [9]: 0.0085 µg/mL; EC50 [10]: 0.0091 µg/mL
9 | B9 | 0.0546 µg/mL | 0.0508 µg/mL | 0.174 µg/mL | 0.045 µg/mL | –
10 | B10 | – | – | – | – | IFN-gamma release in MLR at 1 µg/ml antibody, % of rec hu IL-2 (20 EU/ml) = 100% [6]: 1%; IFN-gamma release in MLR at 10 µg/ml antibody, % of rec hu IL-2 (20 EU/ml) = 100% [6]: 38%; IFN-gamma release in MLR at 40 µg/ml antibody, % of rec hu IL-2 (20 EU/ml) = 100% [6]: 51%
11 | B11 | 0.0527 µg/mL | 0.0342 µg/mL | > 35.5 µg/mL | 0.14 µg/mL | –
12 | B12 | 0.0083 µg/mL | 0.0151 µg/mL | 0.124 µg/mL | 0.065 µg/mL | –
13 | B13 | 0.0224 µg/mL | 0.0263 µg/mL | – | 0.086 µg/mL | –
14 | B14 | 0.0369 µg/mL | 0.0337 µg/mL | 0.182 µg/mL | 0.051 µg/mL | –

Reference: patent US20190322748A1 (Hoffmann-La Roche, published 2019)
